The results in this text go back to publication PMC4310248.

For this series, the target named is Exo10Rrp6 (crystal; Exo9 core + Rrp6 128-685 D238N) (Saccharomyces cerevisiae, UniProt Q12149;P38792;Q08285;P53859;P46948;Q05636;Q12277;P48240;P53256;P25359 …, D238N;Rrp6:). The series can be described thus: X-ray crystallography.

B1: polyA24 (ssRNA)
RNA: AAAAAAAAAAAAAAAAAAAAAAAA
For the molecule B1, the binding result is reported as “binds”.
